Assay results: patent US20150065381A1
Several values for one entry are separate records, joined by “and”; a condition that tells them apart may be missing. Identical values can stand only once.

Legend:
[1] = target: HIV-1 envelope of gp160 clone B-Chronic-014.c02 (HIV-1); test: capture ELISA, plate 2, mAb 2.5 ug/ml
[2] = target: HIV-1 envelope clone G-011.c05 (multiclade gp160 clone panel) (HIV-1); test: capture ELISA, plate 2, mAb 2.5 ug/ml
[3] = target: HIV-1 envelope clone G-011.c02 (multiclade gp160 clone panel) (HIV-1); test: capture ELISA, plate 2, mAb 2.5 ug/ml
[4] = target: HIV-1 JRCSF envelope (HIV-1) (UniProt P20871); test: capture ELISA, plate 2, mAb 2.5 ug/ml
[5] = target: HIV-1 envelope clone F1-002.c11 (multiclade gp160 clone panel) (HIV-1); test: capture ELISA, plate 2, mAb 2.5 ug/ml
[6] = target: HIV-1 envelope of gp160 clone B-Acute-010.c08 (HIV-1); test: capture ELISA, plate 2, mAb 2.5 ug/ml
[7] = target: HIV-1 envelope clone BF-002.c05 (multiclade gp160 clone panel) (HIV-1); test: capture ELISA, plate 2, mAb 2.5 ug/ml
[8] = target: HIV-1 envelope of gp160 clone AG-010.c14 (HIV-1); test: capture ELISA, plate 2, mAb 2.5 ug/ml
[9] = target: HIV-1 envelope clone BF-002.c08 (multiclade gp160 clone panel) (HIV-1); test: capture ELISA, plate 2, mAb 2.5 ug/ml
[10] = target: HIV-1 JRFL envelope (HIV-1); test: capture ELISA, plate 2, mAb 2.5 ug/ml
[11] = target: HIV-1 envelope clone F1-002.c16 (multiclade gp160 clone panel) (HIV-1); test: capture ELISA, plate 2, mAb 2.5 ug/ml
[12] = target: HIV-1 envelope of gp160 clone B-Chronic-014.c02 (HIV-1); test: capture ELISA, plate 1, mAb 2.5 ug/ml
[13] = target: HIV-1 envelope of gp160 clone B-Acute-010.c09 (HIV-1); test: capture ELISA, plate 1, mAb 2.5 ug/ml
[14] = target: HIV-1 envelope clone G-011.c05 (multiclade gp160 clone panel) (HIV-1); test: capture ELISA, plate 1, mAb 2.5 ug/ml
[15] = target: HIV-1 envelope clone G-011.c02 (multiclade gp160 clone panel) (HIV-1); test: capture ELISA, plate 1, mAb 2.5 ug/ml
[16] = target: HIV-1 JRCSF envelope (HIV-1) (UniProt P20871); test: capture ELISA, plate 1, mAb 2.5 ug/ml
[17] = target: HIV-1 envelope clone F1-002.c11 (multiclade gp160 clone panel) (HIV-1); test: capture ELISA, plate 1, mAb 2.5 ug/ml
[18] = target: HIV-1 envelope of gp160 clone B-Acute-008.c11 (HIV-1); test: capture ELISA, plate 1, mAb 2.5 ug/ml
[19] = target: HIV-1 envelope of gp160 clone B-Acute-010.c08 (HIV-1); test: capture ELISA, plate 1, mAb 2.5 ug/ml
[20] = target: HIV-1 envelope clone BF-002.c05 (multiclade gp160 clone panel) (HIV-1); test: capture ELISA, plate 1, mAb 2.5 ug/ml
[21] = target: HIV-1 envelope of gp160 clone AG-010.c14 (HIV-1); test: capture ELISA, plate 1, mAb 2.5 ug/ml
[22] = target: HIV-1 envelope clone BF-002.c08 (multiclade gp160 clone panel) (HIV-1); test: capture ELISA, plate 1, mAb 2.5 ug/ml
[23] = target: HIV-1 envelope of gp160 clone B-Acute-009-c08 (HIV-1); test: capture ELISA, plate 1, mAb 2.5 ug/ml
[24] = target: HIV-1 16055 envelope (HIV-1); test: capture ELISA, plate 1, mAb 2.5 ug/ml
[25] = target: HIV-1 JRFL envelope (HIV-1); test: capture ELISA, plate 1, mAb 2.5 ug/ml
[26] = target: HIV-1 envelope of gp160 clone AG-010.c11 (HIV-1); test: capture ELISA, plate 1, mAb 2.5 ug/ml
[27] = target: HIV-1 envelope clone F1-002.c16 (multiclade gp160 clone panel) (HIV-1); test: capture ELISA, plate 1, mAb 2.5 ug/ml
[28] = target: HIV-1 envelope of gp160 clone B-Chronic-014.c02 (HIV-1); test: cell-based or functional assay
[29] = target: HIV-1 envelope of gp160 clone B-Acute-010.c09 (HIV-1); test: cell-based or functional assay
[30] = target: HIV-1 envelope clone G-011.c05 (multiclade gp160 clone panel) (HIV-1); test: cell-based or functional assay
[31] = target: HIV-1 envelope clone G-011.c02 (multiclade gp160 clone panel) (HIV-1); test: cell-based or functional assay
[32] = target: HIV-1 JRCSF envelope (HIV-1) (UniProt P20871); test: cell-based or functional assay
[33] = target: HIV-1 envelope of gp160 clone B-Acute-008.c11 (HIV-1); test: cell-based or functional assay
[34] = target: HIV-1 envelope of gp160 clone B-Acute-010.c08 (HIV-1); test: cell-based or functional assay
[35] = target: HIV-1 envelope of gp160 clone AG-010.c14 (HIV-1); test: cell-based or functional assay
[36] = target: HIV-1 envelope of gp160 clone B-Acute-009-c08 (HIV-1); test: cell-based or functional assay
[37] = target: HIV-1 envelope of gp160 clone AG-010.c11 (HIV-1); test: cell-based or functional assay
[38] = target: aMLV envelope (from lysed pseudovirus); test: antigen capture ELISA, mAb 2.5 ug/ml, plate 2
[39] = target: BG505 envelope (gp120 monomer released from lysed pseudovirus) (HIV-1); test: antigen capture ELISA, mAb 2.5 ug/ml, plate 2

## PGT145 (antibody)
[1]
  ELISA OD: 0.066 OD
[2]
  ELISA OD: 0.119 OD
[3]
  ELISA OD: 0.07 OD
[4]
  ELISA OD: 0.173 OD and 0.086 OD
[5]
  ELISA OD: 0.072 OD
[6]
  ELISA OD: 0.316 OD
[7]
  ELISA OD: 0.297 OD
[8]
  ELISA OD: 0.076 OD
[9]
  ELISA OD: 0.073 OD
[10]
  ELISA OD: 0.075 OD and 0.058 OD
[11]
  ELISA OD: 0.456 OD
[12]
  ELISA OD: 0.064 OD
[13]
  ELISA OD: 0.068 OD
[14]
  ELISA OD: 0.087 OD
[15]
  ELISA OD: 0.068 OD
[16]
  ELISA OD: 0.071 OD and 0.061 OD
[17]
  ELISA OD: 0.089 OD
[18]
  ELISA OD: 0.101 OD
[19]
  ELISA OD: 0.277 OD
[20]
  ELISA OD: 0.22 OD
[21]
  ELISA OD: 0.065 OD
[22]
  ELISA OD: 0.066 OD
[23]
  ELISA OD: 0.078 OD
[24]
  ELISA OD: 0.115 OD and 0.06 OD
[25]
  ELISA OD: 0.06 OD
[26]
  ELISA OD: 0.06 OD
[27]
  ELISA OD: 0.316 OD
[28]
  PGT145 IC50: 2.22 µg/mL
[29]
  PGT145 IC50: 0.294 µg/mL
[30]
  PGT145 IC50: 0.115 µg/mL
[31]
  PGT145 IC50: 1.8 µg/mL
[32]
  PGT145 IC50: 0.003 µg/mL
[33]
  PGT145 IC50: 8.2 µg/mL
[34]
  PGT145 IC50: 0.032 µg/mL
[35]
  PGT145 IC50: > 50 µg/mL
[36]
  PGT145 IC50: 0.007 µg/mL
[37]
  PGT145 IC50: 8.27 µg/mL
[38]
  ELISA OD: 0.07 OD and 0.066 OD
[39]
  ELISA OD: 0.077 OD
